# Data from publication PMC11969024 (2025).
# B1: peptide HD2 (from tick evasin EVA4) / CCL1 (biotinylated, synthetic) (parent complex)
# chain 1: EEDDYTAYAPLTCYFT
# chain 2: KSMQVPFSRCCFSFAEQEIPLRAILCYRNTSSICSNEGLIFKLKRGKEACALDTVGWVQRHRKMLRHCPSKRK
# Variants of: B1
row,Variant,enrichment
1,chain 1 IEDDYTAYAPLTCYFT,-1.54 log2 (difference from the parental peptide)
2,chain 1 LEDDYTAYAPLTCYFT,-1.81 log2 (difference from the parental peptide)
3,chain 1 PEDDYTAYAPLTCYFT,-3.07 log2 (difference from the parental peptide)
4,chain 1 YEDDYTAYAPLTCYFT,-0.577 log2 (difference from the parental peptide)
5,chain 1 REDDYTAYAPLTCYFT,-4.21 log2 (difference from the parental peptide)
6,chain 1 TEDDYTAYAPLTCYFT,-1.42 log2 (difference from the parental peptide)
7,chain 1 DEDDYTAYAPLTCYFT,2.01 log2 (difference from the parental peptide)
8,chain 1 EEDDYTAYAALTCYFT,-5.62 log2 (difference from the parental peptide)
9,chain 1 EEDDYTAYAMLTCYFT,-6.14 log2 (difference from the parental peptide)
10,chain 1 EEDDYTAYAPVTCYFT,3.09 log2 (difference from the parental peptide)
11,chain 1 EEDDYTAYAPDTCYFT,-8.31 log2 (difference from the parental peptide)
12,chain 1 EEDDYTAYAPGTCYFT,-8.48 log2 (difference from the parental peptide)
13,chain 1 EEDDYTAYAPTTCYFT,-0.173 log2 (difference from the parental peptide)
14,chain 1 EEDDYTAYAPYTCYFT,0.82 log2 (difference from the parental peptide)
15,chain 1 EEDDFTAYAPLTCYFT,-4.11 log2 (difference from the parental peptide)
16,chain 1 EEDDITAYAPLTCYFT,-7.45 log2 (difference from the parental peptide)
17,chain 1 EEDDYTAYAPLGCYFT,-9.53 log2 (difference from the parental peptide)
18,chain 1 EEDDYTAYAPLWCYFT,0.647 log2 (difference from the parental peptide)
19,chain 1 EEDDYTAMAPLTCYFT,-7.72 log2 (difference from the parental peptide)

row,Variant,enrichment
1,chain 1 EADDYTAYAPLTCYFT,-1.98 log2 (difference from the parental peptide)
2,chain 1 EEDDYDAYAPLTCYFT,4.62 log2 (difference from the parental peptide)
3,chain 1 EEDDYGAYAPLTCYFT,3.41 log2 (difference from the parental peptide)
4,chain 1 EEDDYYAYAPLTCYFT,-1.82 log2 (difference from the parental peptide)
5,chain 1 EEDDYWAYAPLTCYFT,0.875 log2 (difference from the parental peptide)
6,chain 1 EEDDYIAYAPLTCYFT,-5.87 log2 (difference from the parental peptide)
7,chain 1 EEDDYHAYAPLTCYFT,-1.17 log2 (difference from the parental peptide)
8,chain 1 EEDDYNAYAPLTCYFT,0.938 log2 (difference from the parental peptide)
9,chain 1 EEDDYTAYAPLTCTFT,-6.17 log2 (difference from the parental peptide)
10,chain 1 EEDDYTAYAPLTCQFT,-5.69 log2 (difference from the parental peptide)
11,chain 1 EEDDYTAYAPLTCRFT,-7.32 log2 (difference from the parental peptide)
12,chain 1 EEDLYTAYAPLTCYFT,-6.1 log2 (difference from the parental peptide)
13,chain 1 EEDYYTAYAPLTCYFT,-4.35 log2 (difference from the parental peptide)
14,chain 1 EEDPYTAYAPLTCYFT,-4.71 log2 (difference from the parental peptide)
15,chain 1 EEDDYTAYAPLTCYFH,-0.232 log2 (difference from the parental peptide)
16,chain 1 EEDDYTAYAPLTCYFA,1.5 log2 (difference from the parental peptide)
17,chain 1 EEDDYTAYAPLTCYFS,0.836 log2 (difference from the parental peptide)
18,chain 1 EEDDYTAYAPLTCYFE,1.93 log2 (difference from the parental peptide)
19,chain 1 EEDDYTAYAPLTCYFV,-0.26 log2 (difference from the parental peptide)

row,Variant,enrichment
1,chain 1 EEDDYTAYAPLTCYFQ,0.281 log2 (difference from the parental peptide)
2,chain 1 EEDDYTAYAPLTCYFG,1.22 log2 (difference from the parental peptide)
3,chain 1 EEDDYTAYAPLTCYFL,-0.0976 log2 (difference from the parental peptide)
4,chain 1 EEDDYTAYAPLTDYFT,-7.39 log2 (difference from the parental peptide)
5,chain 1 EEDDYTAYAPLTVYFT,-4.73 log2 (difference from the parental peptide)
6,chain 1 EEDDYTAYAPLTPYFT,-6.51 log2 (difference from the parental peptide)
7,chain 1 EEDDYTAYAPLTNYFT,-5.11 log2 (difference from the parental peptide)
8,chain 1 EEDDYTIYAPLTCYFT,-3.58 log2 (difference from the parental peptide)
9,chain 1 EEDDYTEYAPLTCYFT,0.457 log2 (difference from the parental peptide)
10,chain 1 EEDDYTAYAPLTCYHT,2.15 log2 (difference from the parental peptide)
11,chain 1 EEDDYTAYAPLTCYVT,2.71 log2 (difference from the parental peptide)
12,chain 1 EEDDYTAYAPLTCYWT,-0.244 log2 (difference from the parental peptide)
13,chain 1 EEDDYTAYAPLTCYET,-0.986 log2 (difference from the parental peptide)
14,chain 1 EEDDYTAYAPLTCYCT,-6.07 log2 (difference from the parental peptide)
15,chain 1 EEDDYTAYAPLTCYLT,2.03 log2 (difference from the parental peptide)
16,chain 1 EESDYTAYAPLTCYFT,-3.39 log2 (difference from the parental peptide)
17,chain 1 EETDYTAYAPLTCYFT,-2.84 log2 (difference from the parental peptide)
18,chain 1 EEDDYTAYFPLTCYFT,-5.95 log2 (difference from the parental peptide)
